From patent US20230110188A1 (ARGENX IIP, published 2023)

Key:
[1] = biological target: T1, Mouse MuSK as it stands on mouse muscle (neuromuscular junctions, C2C12 myotubes) (mouse, UniProt Q61006 22-868); test: cell-based or functional assay
T1 sequence (looked up): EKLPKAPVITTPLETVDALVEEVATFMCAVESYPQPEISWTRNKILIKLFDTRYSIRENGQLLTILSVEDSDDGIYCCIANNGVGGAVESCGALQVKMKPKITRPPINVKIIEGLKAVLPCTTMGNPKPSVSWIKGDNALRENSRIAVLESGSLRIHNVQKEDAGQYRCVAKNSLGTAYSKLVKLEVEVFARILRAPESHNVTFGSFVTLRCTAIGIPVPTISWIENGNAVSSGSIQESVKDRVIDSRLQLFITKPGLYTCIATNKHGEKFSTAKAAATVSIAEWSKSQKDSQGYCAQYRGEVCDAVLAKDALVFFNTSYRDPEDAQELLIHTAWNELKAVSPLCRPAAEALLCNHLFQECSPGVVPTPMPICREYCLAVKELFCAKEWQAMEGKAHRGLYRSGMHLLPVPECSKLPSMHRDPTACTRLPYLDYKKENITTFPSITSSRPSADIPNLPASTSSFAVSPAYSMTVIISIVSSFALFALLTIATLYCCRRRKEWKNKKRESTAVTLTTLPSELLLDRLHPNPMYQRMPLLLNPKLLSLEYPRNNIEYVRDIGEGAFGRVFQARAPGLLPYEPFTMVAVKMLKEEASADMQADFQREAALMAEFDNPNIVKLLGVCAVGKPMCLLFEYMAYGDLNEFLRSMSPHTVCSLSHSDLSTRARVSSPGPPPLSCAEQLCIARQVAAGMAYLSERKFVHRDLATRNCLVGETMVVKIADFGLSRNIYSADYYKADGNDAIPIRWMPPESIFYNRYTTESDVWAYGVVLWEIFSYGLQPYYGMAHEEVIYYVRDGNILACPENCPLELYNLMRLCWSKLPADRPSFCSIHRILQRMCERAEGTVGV

[2] = biological target: T2, Human MuSK (R&D Systems, cat. 10189-MK, histidine tag) (human, UniProt O15146 24-495); test: SPR (Biacore), koff at pH 5.5 over koff at pH 7.4
T2 construct: Bought protein; also called human monomeric MuSK-6xhis; not shown: histidine tag (6xhis)
T2 sequence: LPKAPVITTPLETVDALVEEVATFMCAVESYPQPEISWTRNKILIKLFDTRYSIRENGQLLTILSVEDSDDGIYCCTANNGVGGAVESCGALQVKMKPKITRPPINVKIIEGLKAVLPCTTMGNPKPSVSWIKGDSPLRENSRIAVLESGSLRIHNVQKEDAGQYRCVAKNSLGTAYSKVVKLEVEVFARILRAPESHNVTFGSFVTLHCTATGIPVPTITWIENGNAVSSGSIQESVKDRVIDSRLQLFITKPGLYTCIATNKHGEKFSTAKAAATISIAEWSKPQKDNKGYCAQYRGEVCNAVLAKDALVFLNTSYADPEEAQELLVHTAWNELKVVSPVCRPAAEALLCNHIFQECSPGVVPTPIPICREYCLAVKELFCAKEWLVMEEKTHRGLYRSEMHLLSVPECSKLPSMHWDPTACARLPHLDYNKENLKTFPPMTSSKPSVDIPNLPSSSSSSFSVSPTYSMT
Source text: (§1) In order to study pH dependent binding of our antibodies to MuSK, the Biacore was used with the same setup as described in the paragraph entitled “Binding affinity for mouse, human and rhesus monkey recombinant MuSK in Biacore”. 6. […] For the other antibodies there is no real difference observed between pH 7.4 and 5.5.

[3] = biological target: T2, Human MuSK (R&D Systems, cat. 10189-MK, …); test: SPR (Biacore), MuSK-coated chip presaturated with 500 nM 4D3 (competitor)
Method: (§2) A chip was coated with ˜5000 RU of human MuSK (Lot nr DHUCO 11908A, batch nr 1089_MK). In a first experiment the saturating concentration of the pre-leads was determined. This is the concentration where the amplitude of a specific pre-lead doesn't increase anymore when additional pre-lead is injected on the immobilized MuSK.

[4] = biological target: T2, Human MuSK (R&D Systems, cat. 10189-MK, …); test: SPR (Biacore), MuSK-coated chip presaturated with 500 nM 3F6c (competitor)
Method: as §2

[5] = biological target: T2, Human MuSK (R&D Systems, cat. 10189-MK, …); test: SPR (Biacore), MuSK-coated chip presaturated with 500 nM 3D9b (competitor)
Method: as §2

[6] = biological target: T2, Human MuSK (R&D Systems, cat. 10189-MK, …); test: SPR (Biacore), antibody captured on anti-hFc chip; 5 nM; dissociation pH 7.4
Source text: as §1

[7] = biological target: T2, Human MuSK (R&D Systems, cat. 10189-MK, …); test: SPR (Biacore), antibody captured on anti-hFc chip; 0.625 nM; dissociation pH 5.5
Source text: as §1

[8] = biological target: T3, human monomeric MuSK FLAG streptavidin (in house produced, batch 27-6-2019) (human, UniProt O15146 24-495); test: epitope binning ELISA (coated anti-MuSK Fab, MuSK, IgG, anti-Fc HRP); competitor: 3D9b
T3 construct: also called full length MuSK; not shown: FLAG and streptavidin tags
T3 sequence: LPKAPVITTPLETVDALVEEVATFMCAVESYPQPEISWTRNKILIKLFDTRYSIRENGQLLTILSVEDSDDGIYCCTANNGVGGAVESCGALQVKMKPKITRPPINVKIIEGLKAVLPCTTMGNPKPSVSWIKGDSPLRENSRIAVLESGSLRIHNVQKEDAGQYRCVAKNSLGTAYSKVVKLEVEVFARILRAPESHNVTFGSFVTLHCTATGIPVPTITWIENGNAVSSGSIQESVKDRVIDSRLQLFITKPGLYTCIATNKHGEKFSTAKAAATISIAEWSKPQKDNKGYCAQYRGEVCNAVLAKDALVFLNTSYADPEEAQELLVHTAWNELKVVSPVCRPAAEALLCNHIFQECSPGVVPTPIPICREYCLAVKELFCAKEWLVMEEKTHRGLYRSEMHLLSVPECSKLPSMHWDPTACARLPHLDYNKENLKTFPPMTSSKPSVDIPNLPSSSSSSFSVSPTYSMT
Method: For epitope binning—An ELISA plate was coated at 1 μg/ml of the anti-MuSK Fabs and incubated overnight at 4° C. Next, the plate was wash with PBS followed by blocking with 1% casein in PBS for one hour. After washing the plate, 1 μg/ml of human monomeric MuSK (in house produced, batch 27-6-2019) was incubated for one hour at RT. The plate was washed and anti-MuSK antibodies at 0.3-10 μg/ml were added to the plate and incubated for one hour at RT. After washing the plate, detection antibody (goat anti-human Fc HRP (Jackson Immunoresearch cat. 109-035-098)) was added at 5000 fold dilution in PBS 0.1% casein. The plate was incubated for one hour at RT and washed with PBS-T. TMB was added and the reaction was stopped by adding H2504. […]
For the epitope binning ELISA, a plate was coated with anti-MuSK Fab and human monomeric MuSK was added after blocking the plate. Next the different antibodies were added and allowed to bind.

B1: 3D10a (antibody, human IgG1, kappa, L234A L235A, V domains shown)
VH: EVQLVESGGGLVKPGGSLRLSCAASGFTFSASTMAWVRQAPGKGLEWVSSVSGDSHHIYYADSLKGRFTISRDNAKNSLYLQMNSLRAEDTAVYYCARERLLRLGVGFDSWGQGTLVTVSS
VL: DIQMTQSPSSLSASVGDRVTITCRASQRISGFVNWYQQKPGKAPKLLIYAASTLQSGVPSRFSGSGSGTDFTLTISSLQPEDFATYYCQQSYSPLYTFGQGTKLEIKR
- AChR clusters larger or equal to 15 µm (large clusters) compared to agrin; antibody 0.11 µg/ml [1]: 62 % of agrin
- AChR clusters larger or equal to 15 µm (large clusters) compared to agrin; antibody 1.1 µg/ml [1]: 64 % of agrin
- AChR clusters larger or equal to 15 µm (large clusters) compared to agrin; antibody 11 µg/ml [1]: 61 % of agrin
- AChR clusters larger or equal to 15 µm (large clusters) compared to agrin; antibody 110 µg/ml [1]: 58 % of agrin
- Fold difference (5.5/7.4) of koff [2]: 0.6 fold
- amplitude of prelead after presaturating MuSK (RU) [3]: 68 RU
- extra amplitude (%) [3]: 7.2%
- normalized extra amplitude (%) [3]: 1.9%
- amplitude of prelead after presaturating MuSK (RU) [4]: 75 RU
- extra amplitude (%) [4]: 3.2%
- normalized extra amplitude (%) [4]: 1.4%
- amplitude of prelead after presaturating MuSK (RU) [5]: -1 RU
- extra amplitude (%) [5]: -0.5%
- normalized extra amplitude (%) [5]: -1.5%
- koff [6]: 0.00015 s⁻¹
- koff [7]: 0.00012 s⁻¹
- OD 450 nm [8]: 0.115 OD

B2: 4D3 (antibody, human IgG1, kappa, L234A L235A, V domains shown)
VH: EVQLVESGGGLVKPGGSLRLSCAASGFTFSSYTMTWVRQAPGKGLEWVSSISSGGHYIYYTDSLKGRFTISRDNAKNSLYLQMNSLRAEDTAVYYCARERLLRLGVGFDFWGQGTLVTVSS
VL: DIQMTQSPSSLSASVGDRVTITCRASQSISGYLNWYQQKPGKAPKLLIYAASTLQSGVPSRFSGSGSGTDFTLTISSLQPEDFATYYCQQSYSALYTFGQGTKLEIKR
- AChR clusters larger or equal to 15 µm (large clusters) compared to agrin; antibody 0.11 µg/ml [1]: 44 % of agrin
- AChR clusters larger or equal to 15 µm (large clusters) compared to agrin; antibody 1.1 µg/ml [1]: 58 % of agrin
- AChR clusters larger or equal to 15 µm (large clusters) compared to agrin; antibody 11 µg/ml [1]: 61 % of agrin
- AChR clusters larger or equal to 15 µm (large clusters) compared to agrin; antibody 110 µg/ml [1]: 58 % of agrin
- Fold difference (5.5/7.4) of koff [2]: 1.1 fold
- amplitude of prelead after presaturating MuSK (RU) [3]: 45 RU
- extra amplitude (%) [3]: 5.2%
- normalized extra amplitude (%) [3]: 0%
- amplitude of prelead after presaturating MuSK (RU) [4]: 68 RU
- extra amplitude (%) [4]: 2.8%
- normalized extra amplitude (%) [4]: 1.1%
- amplitude of prelead after presaturating MuSK (RU) [5]: -3 RU
- extra amplitude (%) [5]: -1.6%
- normalized extra amplitude (%) [5]: -2.6%
- koff [6]: 0.00014 s⁻¹
- koff [7]: 0.00013 s⁻¹
- OD 450 nm [8]: 0.061 OD

B3: 3F6c (antibody, human IgG1, kappa, L234A L235A, V domains shown)
VH: EVQLVESGGGLVKPGGSLRLSCAASGFTFSSYTMDWVRQAPGKGLEWVSSIGSNGDYIYYADSVRGRFTISRDNAKNSLYLQMNSLRAEDTAVYYCARGQLAVAGTHFDYWGQGTLVTVSS
VL: DIQMTQSPSSLSASVGDRVTITCRASQKVNKYVNWYQQKPGKAPKLLIYAASTLQSGVPSRFSGSGSGTDFTLTISSLQPEDFATYYCQQSYSPLSTFGQGTKLEIKR
- AChR clusters larger or equal to 15 µm (large clusters) compared to agrin; antibody 0.11 µg/ml [1]: 60 % of agrin
- AChR clusters larger or equal to 15 µm (large clusters) compared to agrin; antibody 1.1 µg/ml [1]: 46 % of agrin
- AChR clusters larger or equal to 15 µm (large clusters) compared to agrin; antibody 11 µg/ml [1]: 51 % of agrin
- AChR clusters larger or equal to 15 µm (large clusters) compared to agrin; antibody 110 µg/ml [1]: 50 % of agrin
- Fold difference (5.5/7.4) of koff [2]: 2.5 fold
- amplitude of prelead after presaturating MuSK (RU) [3]: 59 RU
- extra amplitude (%) [3]: 5.8%
- normalized extra amplitude (%) [3]: 0.6%
- amplitude of prelead after presaturating MuSK (RU) [4]: 64 RU
- extra amplitude (%) [4]: 1.8%
- normalized extra amplitude (%) [4]: 0%
- amplitude of prelead after presaturating MuSK (RU) [5]: -5 RU
- extra amplitude (%) [5]: -2.1%
- normalized extra amplitude (%) [5]: -3.1%
- koff [6]: 7e-05 s⁻¹
- koff [7]: 0.00014 s⁻¹
- OD 450 nm [8]: 0.133 OD

B4: 3D9b (antibody, human IgG1, kappa, L234A L235A, V domains shown)
VH: EVQLVESGGGLVKPGGSLRLSCAASGFTFSTYTMHWVRQAPGKGLEWVSSISSRSAYKYYADSVKGRFTISRDNAKNSLYLQMNSLRAEDTAVYYCARDFFQLGPPRFDSWGQGTLVTVSS
VL: DIQMTQSPSSLSASVGDRVTITCRASQRISSFLNWYQQKPGKAPKLLIYGASNLQSGVPSRFSGSGSGTDFTLTISSLQPEDFATYYCQQSYSPSYTFGQGTKLEIKR
- AChR clusters larger or equal to 15 µm (large clusters) compared to agrin; antibody 0.11 µg/ml [1]: 49 % of agrin
- AChR clusters larger or equal to 15 µm (large clusters) compared to agrin; antibody 1.1 µg/ml [1]: 84 % of agrin
- AChR clusters larger or equal to 15 µm (large clusters) compared to agrin; antibody 11 µg/ml [1]: 79 % of agrin
- AChR clusters larger or equal to 15 µm (large clusters) compared to agrin; antibody 110 µg/ml [1]: 66 % of agrin
- Fold difference (5.5/7.4) of koff [2]: 0.3 fold
- amplitude of prelead after presaturating MuSK (RU) [3]: 163 RU
- extra amplitude (%) [3]: 14.9%
- normalized extra amplitude (%) [3]: 9.6%
- amplitude of prelead after presaturating MuSK (RU) [4]: 191 RU
- extra amplitude (%) [4]: 11.5%
- normalized extra amplitude (%) [4]: 9.7%
- amplitude of prelead after presaturating MuSK (RU) [5]: 40 RU
- extra amplitude (%) [5]: 1%
- normalized extra amplitude (%) [5]: 0%
- koff [6]: 8e-05 s⁻¹
- koff [7]: 4e-05 s⁻¹
- OD 450 nm [8]: 0.15 OD
